What is called Kd is the free concentration of one partner at which half of the binding sites on the other are occupied at equilibrium, for simple one-to-one binding.

Data set [1] concerns the target T1, RsmE dimer (P64W, C-terminal His6) (UniProt P0DPC3 1-64, P64W).
T1 sequence: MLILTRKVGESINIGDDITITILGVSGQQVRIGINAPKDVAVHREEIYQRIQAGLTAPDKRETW
Kind of data set: NMR; 1:1 semi-holo complex; no minor conformations; 30 mM NaCl, 50 mM potassium phosphate pH 7.2; ITC at 298 K (NaCl varied in Supp. Fig. 8), RNA titrated into 10 uM RsmE monomer, sequential two-site model; NMR at 303/313 K with 3% D2O. Conditions: protein: recombinant; tags: C-terminal 6xHis; chain copies: 2; hairpin, 4 bp stem.

Data set [2] has as its target T2, RsmE P64W (Pseudomonas protegens, UniProt P0DPC3, P64W).
T2 sequence: T1 sequence
Put plainly: ITC; 50 mM potassium phosphate pH 7.2, 30 mM NaCl, 298 K; 10 uM monomer in the cell. The settings on record: tags: C-His6 (kept); chain copies: 2; hairpin; 1 RNA per protein dimer. (In general: In ITC the heat of successive injections is recorded.)

Data set [3] deals with T2, RsmE P64W. Put plainly: ITC; other site of the dimer holds one hcnA RNA; 50 mM potassium phosphate pH 7.2, 30 mM NaCl, 298 K; 10 uM monomer in the cell. Conditions: tags: C-His6 (kept); chain copies: 2; hairpin; 2 copies of the RNA per protein dimer, value for the second.
The target in data set [4] is T1, RsmE dimer (P64W, C-terminal His6). Kind of data set: ITC; first site (Kd1); 30 mM NaCl; text: likely upper bound, true value may be <1 nM; 30 mM NaCl, 50 mM potassium phosphate pH 7.2; ITC at 298 K (NaCl varied in Supp. Fig. 8), RNA titrated into 10 uM RsmE monomer, sequential two-site model; NMR at 303/313 K with 3% D2O. Conditions: protein: recombinant; tags: C-terminal 6xHis; chain copies: 2; hairpin, hexaloop.

For data set [5], the target named is T2, RsmE P64W. Kind of data set: ITC; other site of the dimer holds one 4bpSL2 RNA; 50 mM potassium phosphate pH 7.2, 30 mM NaCl, 298 K; 10 uM monomer in the cell. The settings on record: tags: C-His6 (kept); chain copies: 2; hairpin; 2 copies of the RNA per protein dimer, value for the second.
The target in data set [6] is T1, RsmE dimer (P64W, C-terminal His6). Kind of data set: ITC; apo RsmE dimer, first site; 30 mM NaCl, 50 mM potassium phosphate pH 7.2; ITC at 298 K (NaCl varied in Supp. Fig. 8), RNA titrated into 10 uM RsmE monomer, sequential two-site model; NMR at 303/313 K with 3% D2O. Conditions: protein: recombinant; tags: C-terminal 6xHis; chain copies: 2; hairpin.
Data set [7] deals with T2, RsmE P64W. Put plainly: ITC; 50 mM potassium phosphate pH 7.2, 10 mM NaCl, 298 K; 10 uM monomer in the cell. The settings on record: tags: C-His6 (kept); chain copies: 2; hairpin; 1 RNA per protein dimer.
In data set [8] the target is T2, RsmE P64W. Kind of data set: ITC; 50 mM potassium phosphate pH 7.2, 100 mM NaCl, 298 K; 10 uM monomer in the cell. The settings on record: tags: C-His6 (kept); chain copies: 2; hairpin; 1 RNA per protein dimer.
Data set [9] concerns the target T2, RsmE P64W. Kind of data set: ITC; 50 mM potassium phosphate pH 7.2, 300 mM NaCl, 298 K; 10 uM monomer in the cell. The settings on record: tags: C-His6 (kept); chain copies: 2; hairpin; 1 RNA per protein dimer.
The target of data set [10] is T2, RsmE P64W. Kind of data set: ITC; other site of the dimer holds one SL2 RNA; 50 mM potassium phosphate pH 7.2, 10 mM NaCl, 298 K; 10 uM monomer in the cell. The settings on record: tags: C-His6 (kept); chain copies: 2; hairpin; 2 copies of the RNA per protein dimer, value for the second.
Data set [11] addresses T2, RsmE P64W. Kind of data set: ITC; other site of the dimer holds one SL2 RNA; 50 mM potassium phosphate pH 7.2, 30 mM NaCl, 298 K; 10 uM monomer in the cell. The settings on record: tags: C-His6 (kept), chain copies: 2.
Data set [12] has as its target T2, RsmE P64W. Kind of data set: ITC; other site of the dimer holds one SL2 RNA; 50 mM potassium phosphate pH 7.2, 100 mM NaCl, 298 K; 10 uM monomer in the cell. The settings on record: tags: C-His6 (kept); chain copies: 2; hairpin; 2 copies of the RNA per protein dimer, value for the second.
In data set [13] the target is T2, RsmE P64W. Put plainly: ITC; other site of the dimer holds one SL2 RNA; 50 mM potassium phosphate pH 7.2, 300 mM NaCl, 298 K; 10 uM monomer in the cell. Conditions: tags: C-His6 (kept); chain copies: 2; hairpin; 2 copies of the RNA per protein dimer, value for the second.

GGAUCAAGGACGAUCC (structured_RNA) [4bpSL2 RNA]: in [1], the binding result is “binds”.
As to GGGCUUCACGGAUGAAGCCC (ssRNA, T7 transcript (5' triphosphate expected)), the Kd with RsmE P64W [2] is 8.67 ± 2.02 nM; in the data set with RsmE P64W [3] it was 218 ± 12.8 nM.
With GGGCCAUCAAGGACGAUGGUCC (structured_RNA) [SL2 RNA (RsmZ)], the Kd in data set [4] came out at 1.4 nM.
On to GGAUCAAGGACGAUCC (ssRNA, T7 transcript (5' triphosphate expected)) [4bpSL2], for which the Kd with RsmE P64W [2] was 21.6 ± 2.56 nM; with RsmE P64W [5], 97.2 ± 3.58 nM.
For the molecule GGGCUUCACGGAUGAAGCCC (structured_RNA) [hcnA SD RNA], the Kd in data set [6] is around 10 nM.
For the molecule GGGCCAUCAAGGACGAUGGUCC (ssRNA, T7 transcript (5' triphosphate expected)) [SL2], the dissociation constant Kd is below 0.943 nM in the data set with RsmE P64W [7]; below 1.45 nM with RsmE P64W [2]; 5.71 ± 1.35 nM with RsmE P64W [8]; 15.4 ± 1.51 nM in the data set with RsmE P64W [9]; 22.3 ± 2.06 nM in the data set with RsmE P64W [10]; 31.1 ± 2.78 nM with RsmE P64W [11] (hairpin, 2 copies of the RNA per protein dimer, value for the second). Further, the Kd worked out at 64.2 ± 3.23 nM in the data set with RsmE P64W [12] and 118 ± 4.14 nM with RsmE P64W [13].

B1: hcnA SD (ssRNA)
RNA 1: GGGCUUCACGGAUGAAGCCC
RNA 2: GGGCCAUCAAGGACGAUGGUCC
modifications: T7 transcript (5' triphosphate expected)
For B1, in the data set with RsmE P64W [11] (two separate hairpins, one per site), the affinity, expressed as Kd, was 297 ± 11.4 nM.

Values taken from paper PMC13287468, “Newton’s cradle-like allosteric mechanism explains regulatory RsmE RNA binding”.
